This note sets out measurements from patent US20080058263A1 (published 2008).

Changes are numbered by the printed parent chain.

T1: VEGFR-3-Fc (UniProt P35916 25-328)
T1 construct: domain: first three Ig domains; conditioned supernatant of 293T cells; also called VEGFR-3-Fc fusion protein; not shown: Fc fragment of the pIg vector
T1 sequence (looked up): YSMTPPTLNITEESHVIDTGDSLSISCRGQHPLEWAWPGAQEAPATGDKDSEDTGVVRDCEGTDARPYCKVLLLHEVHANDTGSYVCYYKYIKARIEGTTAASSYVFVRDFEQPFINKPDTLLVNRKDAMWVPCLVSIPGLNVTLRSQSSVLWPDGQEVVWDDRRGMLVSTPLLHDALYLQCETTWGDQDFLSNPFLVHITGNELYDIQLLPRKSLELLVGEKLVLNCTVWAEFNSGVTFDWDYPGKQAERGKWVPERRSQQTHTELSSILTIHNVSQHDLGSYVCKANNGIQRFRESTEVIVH

B1: 53-3 (ligand)
chain: AHYNTEILKSIDNEWRKTQCMPIETLVDIFQEYPDEIEYIFKPPCVSVYRCGGCCNSEGLQCVPTEESNITMQIMRIKPHQGQHIGEMSFLQHNKCECRPKKDLV
notes: clone entry
B2: 53-1 (ligand)
chain: AHYNTEILKSIDNEWRKTQCMPIETLVDIFQEYPDEIEYIFKPPCVSVYRCGGCCNDEGLECVPTEESNITMQIMRIKPHQGQHIGEMSFLQHNKCECRPKKD
B3: 53-7 (ligand)
chain: B2 chain with D57S, E61Q, L91A, Q92N, N94T, K95S, E97R, R99M, P100S, K102L
B4: 22-9 (ligand)
chain: AHYNTEILKSIDNEWRKTQCMPREVCIDVGKEFGVATNTFFKPPCVSVYRCGGCCNDEGLECVPTEESNITMQIMRITVPLSQGPKPVTISFLQHNKCECRPKKD
B5: 52-11 (ligand)
chain: B4 chain with R23I, V25T, C26L, I27V, V29I, G30F, K31Q, D57S, E61Q
B6: 52-9 (ligand)
chain: B4 chain with R23I, V25T, C26L, I27V, V29I, G30F, K31Q
B7: 74-13 (ligand)
chain: GQNHHEVVKSIDNEWRKTQCMPREVCIDVGKEFGVATNTFFKPSCVPLMRCGGCCNDEGLECVPTEESNITMQIMRITVPLSQGPKPVTISFANHTSCRCMSKLD
B8: 32-11 (ligand)
chain: GQNHHEVVKSIDNEWRKTQCMPIETLVDIFQEFGVATNTFFKPPCVSVYRCGGCCNSEGLQCVPTEESNITMQIMRITVPLSQGPKPVTISFLQHNKCECRPKKD
B9: 24-9 (ligand)
chain: B4 chain with P44S, S47P, V48L, Y49M
B10: 71-9 (ligand)
chain: GQNHHEVVKSIDNEWRKTQCMPREVCIDVGKEYPDEIEYIFKPSCVPLMRCGGCCNDEGLECVPTEESNITMQIMRITVPLSQGPKPVTISFLQHNKCECRPKKD
B11: 72-13 (ligand)
chain: B7 chain with S44P, P47S, L48V, M49Y
B12: 72-15 (ligand)
chain: B7 chain with S44P, P47S, L48V, M49Y, D57S, E61Q
B13: 22-11 (ligand)
chain: B4 chain with D57S, E61Q
B14: 32-9 (ligand)
chain: B8 chain with S57D, Q61E
B15: 34-9 (ligand)
chain: B8 chain with P44S, S47P, V48L, Y49M, S57D, Q61E
B16: 62-1 (ligand)
chain: GQNHHEVVKFMDVYQRSYCHPREVCIDVGKEFGVATNTFFKPPCVSVYRCGGCCNDEGLECVPTEESNITMQIMRIKPHQGQHIGEMSFLQHNKCECRPKKD
B17: 63-8 (ligand)
chain: GQNHHEVVKFMDVYQRSYCHPREVCIDVGKEYPDEIEYIFKPPCVSVYRCGGCCNSEGLQCMNTSTSYLSKTLFEIKPHQGQHIGEMSFANHTSCRCMSKLD
B18: 32-14 (ligand)
chain: GQNHHEVVKSIDNEWRKTQCMPIETLVDIFQEFGVATNTFFKPPCVSVYRCGGCCNDEGLECMNTSTSYLSKTLFEITVPLSQGPKPVTISFANHTSCRCMSKLD
notes: clone entry
B19: 32-16 (ligand)
chain: B18 chain with D57S, E61Q
B20: 32-15 (ligand)
chain: B8 chain with L93A, Q94N, N96T, K97S, E99R, R101M, P102S, K104L
B21: 52-15 (ligand)
chain: AHYNTEILKSIDNEWRKTQCMPIETLVDIFQEFGVATNTFFKPPCVSVYRCGGCCNSEGLQCVPTEESNITMQIMRITVPLSQGPKPVTISFANHTSCRCMSKLD
notes: clone entry

T3 sequence (P17948 27-338): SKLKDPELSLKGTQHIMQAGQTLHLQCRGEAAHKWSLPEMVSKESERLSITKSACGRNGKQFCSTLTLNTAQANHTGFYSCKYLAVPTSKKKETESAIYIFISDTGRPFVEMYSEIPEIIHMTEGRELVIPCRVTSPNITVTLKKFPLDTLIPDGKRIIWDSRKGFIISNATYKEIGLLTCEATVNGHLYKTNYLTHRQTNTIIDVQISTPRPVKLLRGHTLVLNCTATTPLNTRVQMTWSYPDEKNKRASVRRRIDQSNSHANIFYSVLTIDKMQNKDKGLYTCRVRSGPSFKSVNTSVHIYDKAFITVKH

The target in one experiment is T2, VEGFR-2-Fc (UniProt P35968 20-322).
T2 construct: domain: first 3 Ig domains; conditioned supernatant of 293T cells; also called VEGFR-2-Fc fusion protein; not shown: Fc fragment of the pIg vector
T2 sequence (P35968 20-322): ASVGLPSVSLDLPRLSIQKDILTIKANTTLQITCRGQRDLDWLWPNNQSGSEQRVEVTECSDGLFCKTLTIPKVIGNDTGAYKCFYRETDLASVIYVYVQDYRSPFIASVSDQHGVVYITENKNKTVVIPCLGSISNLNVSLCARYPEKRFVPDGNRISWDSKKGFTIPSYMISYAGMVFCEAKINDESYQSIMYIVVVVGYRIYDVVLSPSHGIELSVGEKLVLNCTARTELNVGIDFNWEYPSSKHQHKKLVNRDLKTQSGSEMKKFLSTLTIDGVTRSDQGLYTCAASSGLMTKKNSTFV
Briefly: receptor-Fc IP. The procedure, abridged:
(§1)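 fusion protein at 400 ng/ml in an IP mix (PBS, 1.5% BSA, 0.06% Tween 20, 3 μg/ml heparin) was combined with sample supernatant at a 1:2 ratio. Bound ligand captured by immunoprecipitation with pentahistidine antibody.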
In the case of B1, the binding result was “binds”.
Take B2: the binding result is listed as “binds”.
On the same count and under the same terms, the result for B3 reads “binds”; that for B4, “no binding”; that for B5, “no binding”.
In the case of B6, the binding result is on record as “no binding”.
Take B7: the binding result is “no binding”.
Still for that read-out and setting: the result for B8 reads “no binding”.
The same measure, in the same setting: the result for B9 reads “no binding”; that for B10, “no binding”.
As for B11, the binding result is recorded as “no binding”.
Still for that read-out and setting: the same measure for B12: “no binding”; for B13: “no binding”; for B14: “no binding”.
On the same count and under the same terms, the same measure for B15: “no binding”; for B16: “no binding”; for B17: “no binding”.
The same measure, in the same setting: the same measure for B18: “no binding”; for B19: “no binding”; for B20: “no binding”.
As for B21, the binding result is “no binding”.

The next experiment concerns the target T3, VEGFR-1-Fc (UniProt P17948 27-338).
T3 construct: domain: first three Ig domains; expressed in Drosophila S2 cells, purified on Protein A sepharose; also called VEGFR-1-Fc fusion protein; not shown: Fc fragment from the Signal-pIgPlus vector
Kind of experiment: receptor-Fc IP. A digest of the protocol:
as §1
B1: the binding result was “binds”.
The same measure, in the same setting: the same measure for B2: “no binding”; for B3: “no binding”.
With B4, the binding result was “no binding”.
Turning to B5, the binding result is given as “no binding”.
Consider B6, for which the binding result is “no binding”.
B7: the binding result is reported as “no binding”.
Regarding B8, the binding result is reported as “no binding”.
In the case of B9, the binding result is “no binding”.
Regarding B10, the binding result is “no binding”.
Take B11: the binding result is “no binding”.
Turning to B12, the binding result is “no binding”.
For the molecule B13, the binding result was “no binding”.
On to B14, for which the binding result is given as “no binding”.
With B15, the binding result is on record as “no binding”.
As for B16, the binding result is given as “binds”.
As for B17, the binding result is “no binding”.
On to B18, for which the binding result is recorded as “no binding”.
Regarding B19, the binding result is listed as “no binding”.
As to B20, the binding result is reported as “no binding”.
Same read-out and setting: the result for B21 reads “no binding”.

Another experiment has as its target T1, VEGFR-3-Fc. Kind of experiment: receptor-Fc IP. The procedure, abridged: as §1
Turning to B1, the binding result is listed as “binds”.
On the same count and under the same terms, the same measure for B2: “no binding”; for B3: “no binding”.
Consider B4, for which the binding result is “no binding”.
Still for that read-out and setting: the same measure for B5: “binds”.
In the case of B6, the binding result is “binds”.
For B7, the binding result is on record as “no binding”.
On to B8, for which the binding result was “binds”.
On to B9, for which the binding result is on record as “no binding”.
For the molecule B10, the binding result is “no binding”.
On the same count and under the same terms, the same measure for B11: “no binding”.
On to B12, for which the binding result was “no binding”.
On to B13, for which the binding result was “no binding”.
With B14, the binding result is reported as “binds”.
In the case of B15, the binding result is “no binding”.
In the case of B16, the binding result is recorded as “no binding”.
Still for that read-out and setting: the result for B17 reads “no binding”; that for B18, “binds”; that for B19, “binds”.
With B20, the binding result is listed as “binds”.
Take B21: the binding result is listed as “binds”.
